Numbered stars: 1 amine (or outer) side, 2 acyl side, 3 side chain; on linkers, the order of the positions; unused ones are H or OH. Bridge positions count the residues as written; N and C are the ends. Square brackets hold non-standard residues; d marks the D form. Primed or numbered codes have the meaning given here. * marks the point of attachment. MB(4) = Monomer B (PyrS), N-Alloc pyrrolidine stapling residue, (S)-3-amino-1-(allyloxycarbonyl)pyrrolidine-3-carboxylic acid, C=CCOC(=O)N1CC[C@@](N[*:1])(C(=O)[*:2])C1; MC″ = Monomer C = PyrR, pyrrolidine stapling residue bearing Alloc (allyl carbamate on pyrrolidine N); R6″ = stapling residue, (R)-2-(5-hexenyl)alanine (drawn only), C=CCCCC[C@@](C)(N[*:1])C(=O)[*:2]; MB = Monomer B = PyrS, Alloc-pyrrolidine stapling residue (allyl carbamate on pyrrolidine N); MB(15) = Monomer B = PyrS (PS), pyrrolidine stapling residue (Alloc on ring N); MB(11) = Monomer B (PyrS), pyrrolidine-bearing Alloc-olefin stapling residue; ME = Monomer E = RgN, acyclic alkyl-N(Alloc) olefin stapling residue; R7 = (R)-2-(6-heptenyl)alanine, C=CCCCCC[C@@](C)(N[*:1])C(=O)[*:2]; R6 = (R)-2-(5-hexenyl)alanine, C=CCCCC[C@@](C)(N[*:1])C(=O)[*:2]; S6 = (S)-2-(5-hexenyl)alanine, C=CCCCC[C@](C)(N[*:1])C(=O)[*:2]; MB(5) = Monomer B (PyrS), N-Alloc pyrrolidine stapling residue; MB(14) = Monomer B = PyrS, Alloc-pyrrolidine stapling residue; MF = Monomer F (SdN), acyclic alkyl-N(Alloc) stapling residue; Biotin = O=C1N[C@H]2[C@H](CS[C@H]2CCCCC(=O)*)N1; Arg(Me2a) = CN(C)C(=N)NCCC[C@H](N)C(=O)O; Arg(Me2s) = CN=C(NC)NCCC[C@H](N)C(=O)O; 1Nal = N[C@@H](Cc1cccc2ccccc12)C(=O)O; PEG3′ = PEG3 linker, CAS# 557756-85-1; hArg = N=C(N)NCCCC[C@H](N)C(=O)O; R8 = C=CCCCCCC[C@@](C)(N)C(=O)O; S8 = C=CCCCCCC[C@](C)(N)C(=O)O; R5 = C=CCCC[C@@](C)(N)C(=O)O; S5 = C=CCCC[C@](C)(N)C(=O)O; Aib = CC(C)(N)C(=O)O
B1: FP0212s Isomer 2 (peptide)
peptide: PAXILDAHVXRVW
modifications: not fully specified; Ac-P-A-R5-I-L-D-A-H-V-S8-R-V-W-NH2; hydrocarbon staple R5/S8
B2: FP0495c (peptide)
peptide: Ac-A[R7]ILDAHI[MD]RVW-NH2
modifications: staple 2-9; not fully specified; printed as Ac-A-R7-I-L-D-A-H-I-MD-R-V-W-NH2; also: carbamate staple R7/MD (-N(R')-C(O)-O-)
B3: FP0006a (peptide)
peptide: Ac-PA[MC″]ILDAHV[S8]RVW-NH2
modifications: staple 3-10; also: amino staple: carbamate CO2 extruded after metathesis, staple: amino staple (-N(R')-, CO2 extruded from carbamate staple)
B4: FP0217rc (peptide)
peptide: AXILDAHIXRVW
modifications: Ac-A-R8-I-L-D-A-H-I-MB-R-V-W-NH2; carbamate staple R8/MB with the olefin reduced to -CH2-CH2-
notes: also called FPO217rc
B5: FP0507a (peptide)
peptide: Ac-A[MI]ILDAHI[S6]RVW-NH2
modifications: staple 2-9; also: amino staple MI/S6 (-N(R')-, after CO2 extrusion from carbamate staple), olefin E/Z not given here

Target: T1, full-length beta-catenin (UniProt P35222 2-781, limits assumed)
T1 construct: mature; also called full-length ß-Catenin; β-catenin
T1 sequence (looked up): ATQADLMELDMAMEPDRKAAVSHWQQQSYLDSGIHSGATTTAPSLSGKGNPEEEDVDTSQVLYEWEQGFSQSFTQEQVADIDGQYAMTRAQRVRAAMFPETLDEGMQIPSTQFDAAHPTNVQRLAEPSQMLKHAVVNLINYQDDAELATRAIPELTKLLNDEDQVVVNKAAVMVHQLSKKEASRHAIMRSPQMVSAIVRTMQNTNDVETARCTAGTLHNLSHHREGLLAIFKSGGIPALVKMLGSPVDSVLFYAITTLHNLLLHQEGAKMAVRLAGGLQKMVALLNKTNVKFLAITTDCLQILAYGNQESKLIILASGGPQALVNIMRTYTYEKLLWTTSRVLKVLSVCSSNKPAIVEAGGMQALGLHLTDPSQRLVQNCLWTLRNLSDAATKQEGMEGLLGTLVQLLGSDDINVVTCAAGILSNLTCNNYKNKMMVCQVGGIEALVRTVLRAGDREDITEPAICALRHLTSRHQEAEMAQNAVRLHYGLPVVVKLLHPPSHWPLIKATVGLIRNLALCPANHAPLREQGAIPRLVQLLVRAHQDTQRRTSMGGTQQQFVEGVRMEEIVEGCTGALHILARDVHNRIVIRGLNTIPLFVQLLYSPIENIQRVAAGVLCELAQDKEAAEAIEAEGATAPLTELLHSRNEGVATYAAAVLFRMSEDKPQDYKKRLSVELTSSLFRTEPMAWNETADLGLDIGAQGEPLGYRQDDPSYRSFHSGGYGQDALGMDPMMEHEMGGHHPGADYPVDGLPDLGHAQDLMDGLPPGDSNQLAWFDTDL
Experiment: competition FP, grade of FP EC50 (++: 100-500 nM)
Protocol: (§1) In some embodiments, a competition fluorescence polarization assay is used to assess binding of provided compounds to beta-catenin. In an exemplary procedure, solutions of provided compounds, e.g., provided stapled peptides, were prepared in a buffer (e.g., 50 mM Tris pH 8.0, 250 mM NaCl, 2% glycerol, 0.5 mM EDTA, 0.02% w/v sodium azide) using a 3-fold serial dilution from 5 µM. Probe solution (15 nM full-length ß-Catenin, 20 nM FITC labeled peptide in buffer) was prepared and incubated for a period of time, e.g., 5 minutes, and the a volume, e.g., 40 µL per well plated in suitable plate, e.g., a black polystyrene 384-well plate (Corning). Equal volume of the serial diluted peptide was added to the plate and incubated protected from light for 15 minutes prior to read. Reads were performed on a Spectramax M5 (Molecular Devices) in duplicate. Suitable probe was FITC-PEG1-PQ-S5-ILD-S5-HVRRVWR (SEQ ID NO: 1) (hydrocarbon staple formed by two S5 via olefin metathesis) and/or FITC-bA-PQ-S5-ILD-S5-HVRRVWR (SEQ ID NO: 3) (hydrocarbon staple formed by two S5 via olefin metathesis). […] Another peptide, FPO217c (Ac-AR_8ILDAHIM$B5$RVW (SEQ ID NO: 280), with N-terminal proline removed and valine replaced with isoleucine compared to FP0025c) was prepared.

Binder	FP EC50
Ac-A[R8]ILNAHI[MB(14)]RVW-NH2 (staple 2-9) [FP0218c]	100 to 500 nM
Ac-A[R8]ILTAHI[MB(14)]RVW-NH2 (staple 2-9) [FP0219c]	100 to 500 nM
Ac-A[R8]ILDAHI[MB(11)][1Nal]VW-NH2 (staple 2-9; also: carbamate staple R8/MB (-N(R')-C(O)-O-), isomer not specified) [FP0365c]	100 to 500 nM
AXIADAHIXRVW (not fully specified; Ac-A-R8-I-A-D-A-H-I-MB-R-V-W-NH2; carbamate staple R8/MB) [FP0406c]	100 to 500 nM
AXILDAHIXAVW (not fully specified; Ac-A-R8-I-L-D-A-H-I-MB-A-V-W-NH2; carbamate staple R8/MB) [FP0410c]	100 to 500 nM
Ac-A[R8]ILDAHI[MB(4)]KVW-NH2 (staple 2-9) [FP0635c]	100 to 500 nM
Ac-A[R8]ILDAHI[MB(4)]K(Me)VW-NH2 (staple 2-9) [FP0636c]	100 to 500 nM
B1	100 to 500 nM
Ac-A[ME]ILDAHI[S8]RVW-NH2 (staple 2-9) [FP0335a]	100 to 500 nM
AXILDAHIXRVW (not fully specified; Ac-A-ME-I-L-D-A-H-I-S8-R-V-W-NH2; carbamate staple ME/S8) [FP0335c Isomer 1]	100 to 500 nM
B2	100 to 500 nM
AXILDAHIXRVW (not fully specified; Ac-A-R5-I-L-D-A-H-I-MF-R-V-W-NH2; carbamate staple R5/MF) [FP0501c]	100 to 500 nM

Target: T1, full-length beta-catenin
Experiment: competition FP, grade of FP EC50 (+++: <=100 nM)
Protocol: as §1

Binder	FP EC50
Ac-PA[MC″]ILDAHV[S8]RVW-NH2 (staple 3-10) [FP0005c]	≤ 100 nM
B3	≤ 100 nM
{Biotin-PEG3′}-A[R8]ILDAHI[MB]RVW-NH2 (staple 2-9) [FP0217c_btn]	≤ 100 nM
B4	≤ 100 nM
AXILDAHIXRVW (not fully specified; Ac-A-R8-I-L-D-A-H-I-S5-R-V-W-NH2; hydrocarbon staple R8/S5) [FP0217s Isomer 1]	≤ 100 nM
AXILDAHIXRVW (not fully specified; Ac-A-R8-I-L-D-A-H-I-S5-R-V-W-NH2; hydrocarbon staple R8/S5) [FP0217s Isomer 2]	≤ 100 nM
Ac-A[R8]ILDAHI[MB(14)]RVW-NH2 [FP0217u]	≤ 100 nM
Ac-[R8]ILDAHI[MB(14)]RVW-NH2 (staple 1-8) [FP0220c]	≤ 100 nM
AXILDAHIXRVW (not fully specified; Ac-A-ME-I-L-D-A-H-I-S8-R-V-W-NH2; carbamate staple ME/S8) [FP0335c Isomer 2]	≤ 100 nM
Ac-A[R6]ILDAHI[MF]RVW-NH2 (staple 2-9; also: carbamate staple, isomer 1, olefin geometry not assigned, also called FP0502c (Peak 1)) [FP0502c Isomer 1]	≤ 100 nM
Ac-A[MI]ILDAHI[S5]RVW-NH2 (staple 2-9; also: carbamate staple, olefin geometry not assigned) [FP0506c Isomer 2]	≤ 100 nM
B5	≤ 100 nM
AXILDAHIXRVW (not fully specified; Ac-A-R5-I-L-D-A-H-I-MH-R-V-W-NH2; carbamate staple R5/MH) [FP0510c Isomer 1]	≤ 100 nM
Ac-A[R5]ILDAHI[MH]RVW-NH2 (staple 2-9; not fully specified; printed as Ac-A-R5-I-L-D-A-H-I-MH-R-V-W-NH2) [FP0510c Isomer 2]	≤ 100 nM
Ac-A[R6″]ILDAHI[MH]RVW-NH2 (staple 2-9) [FP0511a]	≤ 100 nM
Ac-A[R6″]ILDAHI[MH]RVW-NH2 (staple 2-9; not fully specified; printed as Ac-A-R6-I-L-D-A-H-I-MH-R-V-W-NH2) [FP0511c Isomer 1]	≤ 100 nM

Binder	FP EC50
Ac-A[R6″]ILDAHI[MH]RVW-NH2 (staple 2-9; not fully specified; printed as Ac-A-R6-I-L-D-A-H-I-MH-R-V-W-NH2) [FP0511c Isomer 2]	≤ 100 nM
AXILDAHIXRVW (not fully specified; Ac-A-MI-I-L-D-A-H-I-MF-R-V-W-NH2; carbamate staple MI/MF) [FP0587c]	≤ 100 nM
AXILDAHIXRVW (not fully specified; Ac-A-MI-I-L-D-A-H-I-MG-R-V-W-NH2; carbamate staple MI/MG) [FP0588c]	≤ 100 nM
AXILDAHIXRVW (not fully specified; Ac-A-MG-I-L-D-A-H-I-MC-R-V-W-NH2; carbamate staple MG/MC) [FP0598c]	≤ 100 nM
AXILDAHIXRVW (not fully specified; Ac-A-ME-I-L-D-A-H-I-MF-R-V-W-NH2; carbamate staple ME/MF) [FP0601c]	≤ 100 nM
AXILDAHIXRVW (not fully specified; Ac-A-ME-I-L-D-A-H-I-MB-R-V-W-NH2; carbamate staple ME/MB) [FP0604c]	≤ 100 nM
AXILDAHIXRVW (not fully specified; Ac-A-ME-I-L-D-A-H-I-MC-R-V-W-NH2; carbamate staple ME/MC) [FP0605c]	≤ 100 nM
AXILDAHIXRVW (not fully specified; Ac-A-MA-I-L-D-A-H-I-MF-R-V-W-NH2; carbamate staple MA/MF) [FP0611c]	≤ 100 nM
AXILDAHIXRVW (not fully specified; Ac-A-MA-I-L-D-A-H-I-MC-R-V-W-NH2; carbamate staple MA/MC) [FP0616c]	≤ 100 nM
AXILDAHIXRVW (not fully specified; Ac-A-MA-I-L-D-A-H-I-MB-R-V-W-NH2; carbamate staple MA/MB) [FP0617c]	≤ 100 nM
Ac-A[MF]ILDAHI[MB(5)]RVW-NH2 (staple 2-9) [FP0626c]	≤ 100 nM
Ac-A[R8]ILDAHI[MB(4)][hArg]VW-NH2 (staple 2-9) [FP0634c]	≤ 100 nM
Ac-A[R8]ILDAHI[MB(4)][Arg(Me2a)]VW-NH2 (staple 2-9) [FP0639c]	≤ 100 nM
Ac-A[R8]ILDAHI[MB(4)][Arg(Me2s)]VW-NH2 (staple 2-9) [FP0640c]	≤ 100 nM
Ac-A[R8]ILD[Aib]HI[MB(15)]RVW-NH2 (staple 2-9) [FP0645c]	≤ 100 nM

— patent US11198713B2, “Agents modulating beta-catenin functions and methods thereof” (FOG PHARMACEUTICALS, INC., priority 2017, dated 2021)
